These results are taken from patent US20110217305A1 (SYMPHOGEN A S, published 2011).

The target in the assay is T1, Fc-conjugated HER2 (HER2-Fc), R&D Systems cat. No 1129-ER (human, UniProt P04626 23-652).
T1 construct: Bought reagent; Captured on an anti-Fc surface in the SPR binning; also called rhHER2; HER2 protein (R&D Systems cat.#1129-ER); not shown: Fc part of the bought fusion protein
In words: SPR epitope binning (ProteOn XPR36), HER2-Fc captured via anti-Fc; competitor 4387; class limits for the pair.

B1: antibody 4382 (antibody, human IgG1, kappa, V domains shown)
VH: EVQLQQSGPELVKPGASVKISCTASGYTFTDYYMNWVKQSHGKSLEWIGDINPNNGGTNYNQKWKGKATLTIHKSSSTAYMELRSLTSEDSAVYFCVPGGLRSYFDYWGQGTTLTVSS
VL: DIVMTQSLKFMSASVGDRVSITCKASQDVSAAVAWYQQKPGQSPELLIYWASTRHTGVPDRFTGSGSGTDYTLTISSVQAEDLALYYCQQHYTTPPTFGGGTKLEIKR
notes: Chimeric murine/human IgG1 kappa
For the molecule B1, the “% inhibition” value was 25 to 50%.
